Assay results from publication PMC6208404, “Calcium sensing by the STIM1 ER-luminal domain” (Nature Communications, 2018).

Biological target: the molecule itself
Experiment: FRET or BRET; in vitro; purified protein randomly labelled with fluorescein (donor) and Alexa Fluor 594 (acceptor) at an engineered N-terminal cysteine; 250 nM protein, 22 °C, excitation 420 nm; Chelex-treated Ca2+-free buffer, FRET reduced as Ca2+ was added

B1: single-cysteine EFSAM-GrpE (CGG-EFSAM(58-209)-linker-GrpE(1-171)), labelled with fluorescein and/or Alexa Fluor 594 (other, mouse | Thermus thermophilus HB8)
chain: CGGSEDEKLSFEAVRNIHKLMDDDANGDVDVEESDEFLREDLNYHDPTVKHSTFHGEDKLISVEDLWKAWKSSEVYNWTVDEVIQWLITYVELPQYEETFRKLQLTGHAMPRLAVTNTTMTGTVLKMTDRSHRQKLQLKALDTVLFGPPLLTRHNLELSRANSSTLAAVTSGSELMEERNHENTLEKDLEAVGQEAQALEERLKAAEEELKGLKDKYLRLLADFDNYRKRMEEELKAREREGVLKALRALLPVLDDLDRALEFAEASPESIRQGVRAIRDGFFRILAGLGVEEVPGEGEAFDPRYHEAVGLLPGEPGKVAKVFQRGFRMGEALVRPARVAVGEEKR
modifications: fluorescein-5-maleimide or Alexa Fluor 594 C5 maleimide on the engineered N-terminal cysteine (random labelling, ~0.8-0.9:1 fluorophore to protein)
notes: engineered stretch with the single cysteine, immediately N-terminal to EFSAM residue 58; STIM1 ER-luminal EFSAM domain, mouse, residues 58-209; linker between EFSAM and GrpE; GrpE, Thermus thermophilus HB8, residues 1-171 (nucleotides 2222-2734 of GenBank AB012390.1); also called double-labelled EFSAM-GrpE; donor/acceptor-labelled EFSAM-GrpE; source: E. coli BL21, purified (Ni-NTA, Superdex 200 …)
  binding result: binds
